Experimental data: publication PMC9818267, “Brain Natriuretic Peptide Protects Cardiomyocytes from Apoptosis and Stimulates Their Cell Cycle Re-Entry in Mouse Infarcted Hearts” (Cells, 2022)

Experiments:
[1] = molecular target: NPR-A or NPR-B (mouse (endogenous in cardiomyocytes))
[2] = molecular target: NPR-A or NPR-B (mouse (endogenous in cardiomyocytes)); remark: listed apart in the source

- pPLB/PLB ratio (Western blot) in adult CMs isolated from C57BL/6 hearts and stimulated in vitro with BNP for 2–3 h, against untreated cells [1]: 2.1 fold
- pPLB/PLB ratio (Western blot) in CMs isolated from the RZ of infarcted hearts after BNP injections, against saline (decreased) [2]: -32%
- pPLB/PLB ratio (Western blot) in CMs isolated from the border zone (BZ) of infarcted hearts after BNP injections, against saline [2]: 2.7 fold
- pPLB/PLB ratio (Western blot) in CMs isolated from unmanipulated adult hearts after BNP injections, against saline [2]: 1.5 fold
- pPLB/PLB ratio (Western blot) in CMs isolated from unmanipulated neonatal hearts after BNP injections, against saline [2]: 3.5 fold
Substance: Brain Natriuretic Peptide, synthetic mouse BNP (1–45) peptide
